Measurements as given in patent US20200368361A1 (Regeneron, published 2020).

Columns and labels:
[1] = target: T1, human MSR1 with a C-terminal Myc tag expressed on HEK293.Myc.hMSR1 cells (human, UniProt P21757 1-451); test: cell-based or functional assay
T1 sequence (looked up): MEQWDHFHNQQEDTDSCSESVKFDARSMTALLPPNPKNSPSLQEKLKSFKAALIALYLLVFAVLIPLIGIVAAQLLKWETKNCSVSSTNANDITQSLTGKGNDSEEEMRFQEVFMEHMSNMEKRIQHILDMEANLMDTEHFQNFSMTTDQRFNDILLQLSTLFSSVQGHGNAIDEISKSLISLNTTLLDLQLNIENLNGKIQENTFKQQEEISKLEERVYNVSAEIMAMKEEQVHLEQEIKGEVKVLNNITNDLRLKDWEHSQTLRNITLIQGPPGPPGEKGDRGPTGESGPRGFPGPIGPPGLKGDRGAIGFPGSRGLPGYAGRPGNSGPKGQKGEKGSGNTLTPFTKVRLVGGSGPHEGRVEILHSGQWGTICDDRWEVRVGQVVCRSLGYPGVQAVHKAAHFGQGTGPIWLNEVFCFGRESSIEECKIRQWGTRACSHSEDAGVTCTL

[2] = target: T2, mouse MSR1 on RAW264.7 cells (mouse, UniProt P30204 1-458); test: flow cytometry, RAW264.7 cells, 10 ug/mL;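 further: antibodies bound to RAW264.7 cells for 30 min on ice after Fc block with mouse IgG, S/N is MFI relative to unstained cells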
T2 construct: whole, on cells
T2 sequence (looked up): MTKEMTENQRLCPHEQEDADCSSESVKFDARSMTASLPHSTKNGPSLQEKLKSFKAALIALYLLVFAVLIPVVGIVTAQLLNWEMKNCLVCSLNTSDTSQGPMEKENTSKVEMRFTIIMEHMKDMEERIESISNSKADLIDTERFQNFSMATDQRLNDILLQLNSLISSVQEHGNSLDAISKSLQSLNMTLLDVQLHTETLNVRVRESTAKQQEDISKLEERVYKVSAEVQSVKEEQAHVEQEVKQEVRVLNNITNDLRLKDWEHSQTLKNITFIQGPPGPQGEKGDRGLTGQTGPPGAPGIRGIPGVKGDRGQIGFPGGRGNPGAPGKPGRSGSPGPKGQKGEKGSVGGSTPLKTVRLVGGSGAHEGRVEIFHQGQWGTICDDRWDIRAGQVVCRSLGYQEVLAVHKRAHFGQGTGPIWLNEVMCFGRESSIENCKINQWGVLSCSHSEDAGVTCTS

Row | Binder | IC50 of inhibition of Dil-Acetylated LDL uptake [1] | IC50 of inhibition of Dil-Oxidized LDL uptake [1] | % Inhibition of Dil-Acetylated LDL uptake [1] | % Inhibition of Dil-Oxidized LDL uptake [1] | MFI [2] | S/N [2]
1 | H1H21234N-N297Q (antibody, V domains shown) VH: QVQLQESGPGLVKPSETLSLTCTVTGGSISRNYWSWIRQPPGKGLEWIGYIYYSGSIDYNPSLKSRVTISVDTSKNQFSLKLSSMTAADTAVYYCARDRWNWKYGMDVWGQGTTVIVSS VL: EIVLTQSPGTLSLSPGERATLSCRASQTVRNNYLAWYHQKPGQAPRLLIYGASSRATGIPDRFSGSGSGTDFTLTISRLEPEDFTVYYCHQYGNSPWTFGQGTKMEIKR | 1.3 nM | 6.1 nM | – | – | – | –
2 | H2aM25695N (antibody, V domains shown) VH: QVQLQESGPGLVKPSETLSLTCTVTGGSISRNYWSWIRQPPGKGLEWIGYIYYSGSINYNPSLKSRVTISVDMSKNQFSLKLNSVTAADTAVYYCARDRWNWKYGMDVWGQGTTVIVSS VL: EIVLTQSPGTLSLSPGERATLSCRASQTVRNSYLAWYHQKPGQAPRLLIYGASSRATGIPDRFSGSGSGTDFTLTISRLEPEDFAVYYCQQYGSSYWTFGQGTKMEIKR | > 170 nM | > 16 nM | – | – | – | –
3 | H2aM25700N (antibody, V domains shown) VH: QVQLVQSGSEVKKPGASVKVSCKVSGYTLTELSIHWVRQAPGKGLEWMGGFDPEDGETIYAQKFRGRVTMTEDISPDTAYMELSSLRSEDTAVYYCATPRYCNNGICYDYWGQGTLVTVSS VL: DIQMTQSPSSLSASIGDRVTITCRASQSISSYLNWYQQKPGKAPMLLIYAASSLQSGVPSRFSGSGSGTDFTLTISSLQTEDFATYYCQQSYSTPPITFGQGTRLEIKR | 2.4 nM | – | 79% | 91% | – | –
4 | H2aM21227N (antibody, V domains shown) VH: QVQLVQSGAEVKKPGASVKVSCKVSGYTLTELSIHWVRQVPGKGLEWMGGFDPEEGETIFAQEFRDRVTLTEDTSPDTAYMELSSLKSEDAAVYYCTTPRYCNNGICYDYWGQGTLVTVSS VL: DIQMTQSPSSLSASVGDRVTITCRASQSISNYLNWYQQKPGKAPKLLIYTASSLQSGVPSRFSGSGSGTDFTLTISSLQTEDFATYYCQQSYSNFPITFGQGTRLEIKR | 3.7 nM | 3.1 nM | – | – | – | –
5 | H1H21227N-N297Q (antibody, V domains shown) VH: QVQLVQSGAEVKKPGASVKVSCKVSGYTLTELSIHWVRQVPGKGLEWMGGFDPEEGETIFAQEFRDRVTLTEDTSPDTAYMELSSLKSEDAAVYYCTTPRYCNNGICYDYWGQGTLVTVSS VL: DIQMTQSPSSLSASVGDRVTITCRASQSISNYLNWYQQKPGKAPKLLIYTASSLQSGVPSRFSGSGSGTDFTLTISSLQTEDFATYYCQQSYSNFPITFGQGTRLEIKR | 2.4 nM | 1.8 nM | 65% | 94% | – | –
6 | H1H21227N (antibody, V domains shown) VH: QVQLVQSGAEVKKPGASVKVSCKVSGYTLTELSIHWVRQVPGKGLEWMGGFDPEEGETIFAQEFRDRVTLTEDTSPDTAYMELSSLKSEDAAVYYCTTPRYCNNGICYDYWGQGTLVTVSS VL: DIQMTQSPSSLSASVGDRVTITCRASQSISNYLNWYQQKPGKAPKLLIYTASSLQSGVPSRFSGSGSGTDFTLTISSLQTEDFATYYCQQSYSNFPITFGQGTRLEIKR | 2.1 nM | 2 nM | 65% | 89% | – | –
7 | H1H21231N (antibody, V domains shown) VH: EVQLVESGGGLVQPGGSLRLSCAASGFTFSDHYMDWVRQAPGKGLEWVGRTRNKANSHTTEYTASVTGRFTISRDDSRNSLYLQMNSLKTEDTAVYYCVRAGIIGTLFDYWGQGTLVTVSS VL: DIQMTQFPSSLSASVGDRVTITCRASQSISSFLNWFQQKPGKAPKFLIYAASSLQSGVPSRFSGSGSGTDFTLTISSLQPEDFATYYCQQSYSSPPITFGQGTRLEIKR | 3.5 nM | 3.6 nM | 63% | 78% | – | –
8 | H1H21234N (antibody, V domains shown) VH: QVQLQESGPGLVKPSETLSLTCTVTGGSISRNYWSWIRQPPGKGLEWIGYIYYSGSIDYNPSLKSRVTISVDTSKNQFSLKLSSMTAADTAVYYCARDRWNWKYGMDVWGQGTTVIVSS VL: EIVLTQSPGTLSLSPGERATLSCRASQTVRNNYLAWYHQKPGQAPRLLIYGASSRATGIPDRFSGSGSGTDFTLTISRLEPEDFTVYYCHQYGNSPWTFGQGTKMEIKR | 0.71 nM | 4.3 nM | – | – | – | –
9 | H1H27729P-N297Q (antibody, V domains shown) VH: QVQLVESGGGLVKPGGSLRLSCAASGFIFSDYYMSWIRQAPGKGLEWVSYISSSGTTIYGDSVKGRFTMSRDNAKNSLYLQMNSLRAEDTAVYYCARNYALFDYWGQGTLVTVSS VL: DIQMTQSPSSLSASVGDRVTITCQASQDISKYLNWYQQKPGKAPKLLIYYTSNLETGVPSRFSGSGSGTDFTFTISSLQPEDIATYYCHQSDYLPFTFGPGTKVDIKR | 1.2 nM | – | – | – | – | –
10 | H1H27731P-N297Q (antibody, V domains shown) VH: QLQLQESGPGLVKPSETLSLTCTVSGGSISRISYYWGWIRQPPGKGLEWIGSIYDSGSTYYNPSLKSRVTISIDTSKNQFSLKLSSVTAADTAVYYCVRYSSSSAFAFDYWGQGTLVTVSS VL: DIQMTQSPSSVSASVGDRVTITCRASQGISSWLAWYQQKPGKAPKLLIYAASSLQSGVPSRFSGSGSGTDFTLTISSLQPEDFATYYCQQANSFPFTFGPGTKVDIKR | 1.8 nM | > 10 nM | – | – | – | –
11 | H1H21231N-N297Q (antibody, human IgG1, V domains shown, human IgG1 Fc with N297Q) VH: EVQLVESGGGLVQPGGSLRLSCAASGFTFSDHYMDWVRQAPGKGLEWVGRTRNKANSHTTEYTASVTGRFTISRDDSRNSLYLQMNSLKTEDTAVYYCVRAGIIGTLFDYWGQGTLVTVSS VL: DIQMTQFPSSLSASVGDRVTITCRASQSISSFLNWFQQKPGKAPKFLIYAASSLQSGVPSRFSGSGSGTDFTLTISSLQPEDFATYYCQQSYSSPPITFGQGTRLEIKR | – | – | – | – | 3580 | 1
12 | H1H27732P-N297Q (antibody, human IgG1, V domains shown, human IgG1 Fc with N297Q) VH: QLQLQESGPGLVKPSETLSLTCTVSGGSISSSTYYWGWIRQPPGKGLEWIGSFYYSGSTYYNPSLKSRVTISVGTSKNQFSLKLSSVTAADTAVYFCARGGLLGRPFVIWGQGTMVTVSS VL: DIQMTQSPSSLSASVGDRVTITCRASQGIRNDLGWYQQKPGKAPKRLIYAASSLQSGVPSRFSGSGSGTEFTLTISSLQPEDFATYYCLQHNSYPLTFGGGTKVEIKR | – | – | – | – | 3420 | –
13 | H1H27736P-N297Q (antibody, human IgG1, V domains shown, human IgG1 Fc with N297Q) VH: EVQLVESGGGLVQPGGSLRLSCAASGFTFSSYAMSWVRQAPGKGLEWVSSISGSGDSTFYTDSVKGRFTISRDISKNTLYLQMNSLRAEDTAVYYCAKDRLLWFGDLISPFHYWGQGTLVTVSS VL: EIVLTQSPGTLSLSPGERATLSCRASQSVSNIYLAWYQQKPAQAPRLLIYGASSRATGIPDRFSVSGSGTDFTLTISRLEPEDFAVYYCQQYGSSPRTFGQGTKVEIKR | – | – | – | – | 3550 | –
14 | H1H27749P-N297Q (antibody, human IgG1, V domains shown, human IgG1 Fc with N297Q) VH: QVQLQESGPGLVKPSETLSLTCTVSDGSISSYYWSWIRQPPGRGLEWIGFIYYSGSTSYNPSLKSRVTISVDTSMSQFSLKLRSVTAADTAVYYCARGSPFDYWGPGTLVTVSS VL: EIVLTQSPGTLSLSPGERATLSCRASQSVSSSYLAWYQQRPGQAPSLLISGASRRATGIPDRFSGSGSGTDFTLTIRRLEPEDFAMYYCQQYGSSPPTFGGGTKVEIKR | – | – | – | – | 3790 | –
